Results taken from patent publication US20160280792A1 (Kyowa Kirin, published 2016).

What was measured:
Experiment in all cases: flow cytometry, labelled antibody at 1 µg/ml, HEK293T cells expressing the construct
[1] = biological target: T1, IL-3Rα/GM-CSFRα chimeric protein, B domain of IL-3Rα replaced by that of GM-CSFRα, on HEK293T cells (human, UniProt P15509 115-213)
T1 construct: domain: B domain; The KpnI sites (GGTACC) at both junctions each encode an extra Gly-Thr; also called B domain substitution
T1 sequence: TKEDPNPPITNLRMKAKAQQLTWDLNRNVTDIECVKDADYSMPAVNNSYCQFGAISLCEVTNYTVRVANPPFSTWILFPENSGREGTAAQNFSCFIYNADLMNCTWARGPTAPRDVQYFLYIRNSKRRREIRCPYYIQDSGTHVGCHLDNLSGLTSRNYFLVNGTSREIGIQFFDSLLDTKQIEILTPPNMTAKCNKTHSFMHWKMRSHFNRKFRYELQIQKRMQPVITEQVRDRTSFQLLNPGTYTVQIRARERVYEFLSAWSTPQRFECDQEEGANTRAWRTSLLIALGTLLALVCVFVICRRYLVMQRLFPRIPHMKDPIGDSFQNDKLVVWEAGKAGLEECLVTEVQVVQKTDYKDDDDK
Procedure: (§1) HEK293T cell (ATCC CRL 1268) was used for the preparation of the IL-3Rα/GM-CSFRα chimeric protein expression cell. Using 293Fectin (Invitrogen), the plasmid DNA obtained in the above was introduced as an expression vector into the HEK293T. The HEK293T to which the expression vector was introduced was cultured using a shaker under conditions of 5% CO₂ and 37° C. after 2 days of the introduction, the […] was used for in the flow cytometry analysis.
(§2) From 100,000 to 1,000,000 cells of the chimeric protein expression cell were allowed to react for 30 minutes on ice with at a concentration of 1 μg/ml with an AlexaFlour488-labeled human antibody or a commercially available FITC-labeled anti-IL-3Rα mouse antibody (7G3 or 9F5: both from BD Biosciences, 6H6: Acris Antibodies, AC145: Milteny Biotech, 107D2.08: Dendritics). A staining medium (Dulbecco's PBS supplemented with 2% fetal bovine serum, 2 mM EDTA and 0.05% NaN₃) was used for the dilution of antibodies and cells. Next, the cells reacted with antibodies were washed three times with the staining medium and whether the labeled antibody bound to the cell was confirmed by flow cytometry.

[2] = biological target: T2, IL-3Rα/GM-CSFRα chimeric protein, A domain of IL-3Rα replaced by that of GM-CSFRα, on HEK293T cells (human, UniProt P15509 23-114)
T2 construct: domain: A domain; The KpnI site (GGTACC) at the junction encodes an extra Gly-Thr; also called A domain substitution
T2 sequence: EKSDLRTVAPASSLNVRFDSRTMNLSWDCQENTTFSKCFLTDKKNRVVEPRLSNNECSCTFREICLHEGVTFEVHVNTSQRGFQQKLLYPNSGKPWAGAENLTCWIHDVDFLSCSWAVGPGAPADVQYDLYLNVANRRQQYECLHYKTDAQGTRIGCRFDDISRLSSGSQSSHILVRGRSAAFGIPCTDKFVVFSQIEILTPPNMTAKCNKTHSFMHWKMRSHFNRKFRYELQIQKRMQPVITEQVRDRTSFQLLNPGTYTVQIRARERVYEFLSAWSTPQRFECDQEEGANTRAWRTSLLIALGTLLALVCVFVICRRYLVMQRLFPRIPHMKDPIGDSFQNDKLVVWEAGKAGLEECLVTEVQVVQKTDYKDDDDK
Procedure: as §1, §2

[3] = biological target: T3, IL-3Rα/GM-CSFRα chimeric protein, region 3 (91-STWILFPE-98) of IL-3Rα replaced by GM-CSFRα sequence, on … (human, UniProt P26951 19-378)
T3 construct: also called Region 3 (A)
T3 chain: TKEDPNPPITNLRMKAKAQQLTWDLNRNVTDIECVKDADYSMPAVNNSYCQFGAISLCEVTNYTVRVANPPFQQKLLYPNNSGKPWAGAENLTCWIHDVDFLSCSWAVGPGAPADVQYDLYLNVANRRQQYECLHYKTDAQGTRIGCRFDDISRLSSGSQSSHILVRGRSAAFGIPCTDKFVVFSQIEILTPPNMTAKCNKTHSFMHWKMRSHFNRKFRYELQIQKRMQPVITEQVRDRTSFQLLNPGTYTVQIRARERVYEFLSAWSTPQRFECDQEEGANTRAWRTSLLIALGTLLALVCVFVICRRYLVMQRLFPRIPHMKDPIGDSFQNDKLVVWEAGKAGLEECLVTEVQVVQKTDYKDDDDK

Measured: binding result

B1: Old19 anti-human IL-3Rα human antibody (antibody, human IgG1, V domains shown)
VH: QVQLVQSGAEVKKPGSSVKVSCKASGGTFSSYAISWVRQAPGQGLEWVGGIIPIFGTANYAQKFQGRVTITADESTSTAYMELSSLRSEDTAVYYCARGHKYGPYYFDYWGQGTLVTVSS
VL: DIQMTQSPSSLSASVGDRVTITCRASQGISSWLAWYQQKPEKAPKSLIYAASSLQSGVPSRFSGSGSGTDFTLTISSLQPEDFATYYCQQYNSYPRTFGQGTKVEIK
notes: Human antibody; recombinant form in N5KG1-Val Lark vector (human IgG1, kappa)
no binding (tested: 1 µg/ml): all assays above
